From paper PMC4457900, “Preclinical Pharmacokinetic Studies of the Tritium Labelled D-Enantiomeric Peptide D3 Developed for the Treatment of Alzheimer´s Disease” (PLoS ONE, 2015) come the findings set out here.

The target in data set [1] is T1, human serum albumin (HSA) (Homo sapiens, UniProt P02768).
T1 construct: purchased Sovicell GmbH, Leipzig, Germany
The data set can be described thus: Plasma protein binding, TRANSIL XL kit, HSA. The following applies: 5 μM D3 (with 3H-D3) in PBS, LSC of supernatant, above detection limit of the kit, n = 2. It counts as in vitro ADME. Here is the method: Plasma protein binding was estimated by incubation of D3 with varying concentrations of protein using TRANSIL^XL binding kits (Sovicell GmbH, Leipzig, Germany). KD values were determined by titrating a constant drug concentration against different concentrations of human serum albumin (HSA) and α1-acid glycoprotein (AGP). Experiments were performed as recommended for the kit. To obtain the desired D3 stock solution of 80 μM, non-radioactively labelled D3 was dissolved in PBS and 5% ^3H-labelled D3 solution was added for detection purposes. A final concentration of 5 μM D3 was applied in the assay. After incubation and centrifugation 15 μl supernatant were taken and scintillation cocktail was added. This was done in triplicate. Radioactivity was then quantified using liquid scintillation counting. After measuring the disintegrations per minute (dpm) of the supernatant containing the unbound peptide, the D3 fraction bound to the titrated protein was calculated and plotted against the protein concentrations. […]
For bioavailability determination, the unbound fraction of D3 (fu) was calculated using the equation below: fu=100*CD3−KD−Cphysiol/2+KD*CD3+(CD3−KD−Cphysiol/2)^2/CD3 (1) For very low D3 concentrations in blood (CD3), Eq (1) can be simplified by Eq (2), where the unbound fraction of D3 can be calculated independently of the applied D3 concentration. […]

Data set [2] in a line: Proteolytic stability in mouse plasma (TLC, autoradiography). The following applies: freshly prepared mouse plasma, 37°C, 1 μCi (approx. 0.08–0.8 μg) peptide with 1 μl plasma, D3 up to 2 days, L-form 0 and 60 min, 3H-autoradiography. It is filed as in vitro ADME. Here is the method: In order to study the proteolytic stability of peptides in biological extracts, tritium labelled peptides were incubated with liver microsomes (pooled from mouse (CD-1), Sigma-Aldrich), freshly prepared mouse plasma or extracts of brain, liver and kidney at 37°C for different time periods (from 0 min to 2 days). 1 μCi (approx. 0.08–0.8 μg) radioactive labelled peptide was mixed with 1 μl microsomes stock solution, plasma or organ extracts, respectively (in great excess to peptide). Mixtures containing tritium-labelled peptides were applied onto HPTLC Silica Gel 60 plates (OMNILAB, Essen, Germany) for thin layer chromatography (TLC) with a mobile solvent (2-Butanol/Pyridine/Ammonia(28%)/Water(39/34/10/26)). After development, a phosphor imaging plate for ^3H-autoradiography (FUJIFILM, Tokyo, Japan) was exposed to the TLC plates for 3 days. Images were acquired with a BAS reader and AIDA software (Raytest, Freiburg, Germany). Retardation factor (Rf) of each substance was defined as the ratio of the migration distance of the centre of a separated spot to the migration distance of the solvent front.

“Also recorded” adds a separate entry of the source. Some results are limits rather than exact numbers.

As to “D3: fully D-enantiomeric peptide identified by mirror-image phage display for binding to Aβ (1–42) (RPRTRLHTHRNR; all residues are D-amino acids (rprtrlhthrnr); tracer form carries 4,5-3H-D-Leu at position 6)”, the Kd (commonly the constant that tells how readily two partners part at equilibrium) in data set [1] was greater than 1400 µM.

For the substance “RPRTR-(4,5-^3H-Leu)-HTHRNR [3H-(L)-D3, tritium labelled L-form enantiomer of D3, RPRTR-(4,5-3H-Leu)-HTHRNR]”, the “proteolytic degradation in plasma” value in data set [2] is reported as “significant degradation already after 60 min; also recorded: Obvious proteolytic degradation”.
